Data taken from paper PMC12331966.

What was measured:
Experiment in all cases: EMSA
[1] = biological target: PABPC1 K512R (Homo sapiens, UniProt P11940 1-636, K512R)
[2] = biological target: PABPC1 WT (Homo sapiens, UniProt P11940 1-636)
[3] = biological target: T1, TIA1 WT (Homo sapiens, UniProt P31483 1-386)
T1 sequence: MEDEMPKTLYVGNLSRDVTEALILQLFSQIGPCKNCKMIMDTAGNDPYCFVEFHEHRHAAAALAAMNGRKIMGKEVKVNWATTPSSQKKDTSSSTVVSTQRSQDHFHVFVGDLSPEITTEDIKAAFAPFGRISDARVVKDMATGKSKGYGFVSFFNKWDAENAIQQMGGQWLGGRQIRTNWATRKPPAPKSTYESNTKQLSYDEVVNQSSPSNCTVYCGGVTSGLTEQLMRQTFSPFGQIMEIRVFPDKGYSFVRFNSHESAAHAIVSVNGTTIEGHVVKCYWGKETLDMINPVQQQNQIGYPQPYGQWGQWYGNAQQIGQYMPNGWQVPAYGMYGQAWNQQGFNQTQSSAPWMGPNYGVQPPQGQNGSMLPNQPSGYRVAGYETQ

Chain of PABPC1 WT (P11940 whole entry): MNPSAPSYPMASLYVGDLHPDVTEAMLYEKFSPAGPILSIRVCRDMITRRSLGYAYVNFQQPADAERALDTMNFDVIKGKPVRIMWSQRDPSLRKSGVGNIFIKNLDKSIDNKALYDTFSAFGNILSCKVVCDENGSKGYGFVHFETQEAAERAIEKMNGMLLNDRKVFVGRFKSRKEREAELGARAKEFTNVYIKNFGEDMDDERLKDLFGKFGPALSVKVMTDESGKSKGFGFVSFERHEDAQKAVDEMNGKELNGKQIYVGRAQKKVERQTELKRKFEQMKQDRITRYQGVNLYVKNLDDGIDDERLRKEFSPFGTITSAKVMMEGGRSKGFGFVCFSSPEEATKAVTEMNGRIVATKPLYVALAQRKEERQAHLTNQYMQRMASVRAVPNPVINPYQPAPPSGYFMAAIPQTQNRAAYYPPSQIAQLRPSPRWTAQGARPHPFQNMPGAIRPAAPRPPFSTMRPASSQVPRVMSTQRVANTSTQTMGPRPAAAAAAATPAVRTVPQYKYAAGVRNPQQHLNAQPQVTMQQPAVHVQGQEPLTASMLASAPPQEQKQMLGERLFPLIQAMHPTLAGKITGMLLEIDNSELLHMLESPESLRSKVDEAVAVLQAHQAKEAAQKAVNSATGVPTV
Chain of PABPC1 K512R (P11940 whole entry K512R): as the sequence (P11940 whole entry) above, with K512R counted along it

B1: Bio-A90 (ssRNA)
RNA: GCCUUUCAUCUCUAACUGCGAAAAAAAAAAAAAAAAAAAAAAAAAAAAAAAAAAAAAAAAAAAAAAAAAAAAAAAAAAAAAAAAAAAAAAAAAAAAAAAAAAAAAAAAAA
**Q.** Does B1 bind [1]?
**A.** Result: binds

**Q.** Does B1 bind [2]?
**A.** Result: binds

**Q.** Does CUUUUUUUUUUUUUUUUUUUUUUUUG (ssRNA) [Bio-polyU] bind [3]?
**A.** Result: binds
